KI and Km data for two compounds are collected here from article PMC9692976, “Characterization of a Glycolipid Synthase Producing α-Galactosylceramide in Bacteroides fragilis” (International Journal of Molecular Sciences, 2022).

Series [1] has as its target T1, αGalCer_GT (BF9343_3149; αCerGal_GT) (Bacteroides fragilis, UniProt A0A380YRQ3).
T1 construct: full length, SUMO fusion at N-terminus and Strep-tag (C-terminal in Results; Methods also says N-terminal Strep-tag), tags kept, codon-optimised gene, E. coli BL21(DE3) Star, StrepTrap purified
The series is described as follows: HPLC with fluorescence detection of αGalCer-NBD, initial rates. In kind it is biochemical. To be noted: substrate inhibition constant; second site; 1.25 mM UDP-Gal, Cer-NBD solubilized with equimolar BSA, pH 7.5, 37 °C; labelled compound.

The test system of series [2] is CCCCCCCCCCCCC/C=C/[C@@H](O)[C@H](CO)NC(=O)CCCCCNc1ccc([N+](=O)[O-])c2nonc12. The series is described as follows: purified protein. Conditions: 1.25 mM UDP-Gal, Cer-NBD solubilized with equimolar BSA, pH 7.5, 37 °C, fit with substrate inhibition, labelled compound.
Series [3] concerns O=c1ccn([C@@H]2O[C@H](COP(=O)(O)OP(=O)(O)O[C@H]3O[C@H](CO)[C@H](O)[C@H](O)[C@H]3O)[C@@H](O)[C@H]2O)c(=O)[nH]1. Briefly: purified protein. To be noted: 25 µM Cer-NBD with equimolar BSA, pH 7.5, 37 °C, fit with substrate inhibition.

T1 sequence (A0A380YRQ3 entry or part of it): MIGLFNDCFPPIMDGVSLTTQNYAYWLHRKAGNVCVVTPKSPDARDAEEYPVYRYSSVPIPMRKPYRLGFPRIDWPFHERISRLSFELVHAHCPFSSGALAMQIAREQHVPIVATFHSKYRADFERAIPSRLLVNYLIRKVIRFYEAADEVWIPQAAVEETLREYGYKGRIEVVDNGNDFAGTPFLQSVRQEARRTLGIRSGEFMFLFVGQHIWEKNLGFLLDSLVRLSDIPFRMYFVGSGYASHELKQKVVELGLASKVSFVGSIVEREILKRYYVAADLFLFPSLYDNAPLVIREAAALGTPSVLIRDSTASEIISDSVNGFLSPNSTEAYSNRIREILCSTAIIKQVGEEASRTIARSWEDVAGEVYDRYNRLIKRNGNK

Compound `CCCCCCCCCCCCC/C=C/[C@@H](O)[C@H](CO)NC(=O)CCCCCNc1ccc([N+](=O)[O-])c2nonc12` [Cer-NBD, N-[6-[(7-nitro-2-1,3-benzoxadiazol-4-yl)amino]hexanoyl]-D-erythro-sphin-gosine] gave a KI in series [1] of 161 µM.
“αGalCer_GT (BF9343_3149; αCerGal_GT) (Bacteroides fragilis NCTC 9343)”: the Km (in general, the concentration of substrate that gives half-maximal velocity) in series [2] turned out to be 4.6 µM; in series [3], 218 µM.
